These results are taken from paper PMC4344939.

The target of this experiment is Recombinant human galectin-1 (human) (UniProt P09382). Nature of the experiment: SPR. On the technique in general: Surface plasmon resonance follows binding to a sensor surface in real time, without labels.
Chain of UniProt P09382 (P09382 whole entry): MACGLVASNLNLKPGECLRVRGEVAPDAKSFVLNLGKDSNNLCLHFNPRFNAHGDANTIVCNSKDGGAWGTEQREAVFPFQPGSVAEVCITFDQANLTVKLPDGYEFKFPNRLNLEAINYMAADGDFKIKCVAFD

For “Recombinant hemagglutinin (HA) from influenza A H1N1 (A/Puerto Rico/8/1934) (from UniProt P03452) (natural protein)”, the Kd turned out to be 0.425 µM.

The Kd is the equilibrium constant for the complex coming apart.
